{
  "source": "patent US20240382572A1",
  "about": "“COMBINATIONS OF CHECKPOINT INHIBITORS AND THERAPEUTICS TO TREAT CANCER” (Cognate Bioservices, Inc., priority 2013, published 2024)",
  "key": {"PD-1": {"biological_target": "T1, PD-1 (Homo sapiens, UniProt Q15116)", "T1 construct": "host or cells: Trial subjects (patients); PD-1 is endogenous", "T1 sequence (Q15116 25-288)": "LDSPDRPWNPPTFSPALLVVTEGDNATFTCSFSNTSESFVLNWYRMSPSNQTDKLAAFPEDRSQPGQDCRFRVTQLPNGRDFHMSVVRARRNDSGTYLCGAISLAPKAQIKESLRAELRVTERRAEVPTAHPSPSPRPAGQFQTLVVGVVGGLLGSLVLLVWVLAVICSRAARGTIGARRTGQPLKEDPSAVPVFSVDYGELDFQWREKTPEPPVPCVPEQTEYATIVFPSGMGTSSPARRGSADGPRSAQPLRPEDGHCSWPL", "conditions": "phase II, DLBCL, cited from earlier work"}, "GL261 murine glioma [1]": {"system": "GL261 murine glioma", "assay": "Flow cytometry of tumor, lymph node and spleen harvests from GL261 glioma-bearing mice", "format": "in vivo, C57BL/6 mice", "description": "Mice were intracranially implanted with GL261 murine glioma and then administered PBS (Ix) or lysate-pulsed DC vaccine subcutaneously on days 3 and 13 post-tumor implant. On day 16, 72 h after the second treatment, mice were euthanized and spleen, lymph, and brain hemispheres harvested for processing.\nSpleen, lymph, and brain hemispheres harvested for processing on day 16 post-implant (72 h after second treatment).\nBone marrow-derived DC and vaccination. […] Briefly, bone marrow cells were cultured in a humidified atmosphere of 5% CO2 at 37° C. overnight in complete RPMI (Mediatech, Inc. Herndon, VA) (supplemented with 10% FBS, 1% (v/v) penicillin and streptomycin). The day following, nonadherent cells were collected and plated with murine interleukin-4 (IL-4, 400 IU/mL, R&D Systems, Minneapolis, MN) and murine granulocyte-macrophage colony stimulating factor (GM-CSF, 100 ng/mL, R&D Systems, Minneapolis, MN). On day 4, adherent cells were re-fed with fresh media with the same cytokines. On day 7, DCs were harvested and resuspended at 1×10^6 cells/ml in complete RPMI and pulsed with GL261 lysate (250 μg/mL). On day 8, DCs were collected and resuspended at 2×10^6 cells/mL in PBS Ix and immediately prepared for injection in 0.2 mL of cell suspension per mouse. Injections were given subcutaneously (s.c.) at 4 sites on the back.\nIntracranial glioma implants. […]"}, "GL261 murine glioma [2]": {"system": "GL261 murine glioma", "assay": "Survival of mice with intracranial GL261 glioma", "format": "in vivo, C57BL/6 mice", "conditions": "mice with well-established intracranial GL261 glioma"}},
  "data": [
    {"compound": "CT-011: humanized IgG1 monoclonal antibody against PD-1", "values": [
      {"measurement": "subjects alive", "setting": "PD-1; preliminary results", "value": 82, "unit": "%"},
      {"measurement": "subjects progression-free at the end of the follow-up period", "setting": "PD-1; preliminary results", "value": 70, "unit": "%"},
      {"measurement": "activity of natural killer cells", "setting": "PD-1", "value": "augments the activity of natural killer cells"}
    ]},
    {"compound": "FC(F)(F)c1ccc(CNc2ccc(Cc3c[nH]c4ncc(Cl)cc34)cn2)cn1", "note": "[PLX3397]", "values": [
      {"measurement": "myeloid cells expressing PD-L1 (Thy1.2- Ly6C+ PD-L1+) in tumor", "setting": "GL261 murine glioma [1]", "value": "absence of these Ly6C^+ PD-L1^+ cells"},
      {"measurement": "activated tumor-infiltrating lymphocytes (CD3+ CD8+ CD25+)", "setting": "GL261 murine glioma [1]; day 16 post-implant", "value": "significant tumor-infiltrating population"},
      {"measurement": "survival", "setting": "GL261 murine glioma [2]", "value": "entirely recovered survival benefit"}
    ]}
  ]
}
